Data reported in patent publication US20110002929A1 (Ablynx, published 2011).
Where two headings read alike, the source gives them in different places.

Experiments:
human RANK-L [1] = biological target: T1, human RANK-L (human, UniProt O14788 140-317, limits assumed); assay: AlphaScreen, biotin-hRANK-L / RANK-huFc beads
T1 construct: Soluble protein, used coated, biotinylated or labelled in ELISA, AlphaScreen, FMAT and Biacore; also called hRANK-L; soluble human RANK-L
T1 sequence (looked up): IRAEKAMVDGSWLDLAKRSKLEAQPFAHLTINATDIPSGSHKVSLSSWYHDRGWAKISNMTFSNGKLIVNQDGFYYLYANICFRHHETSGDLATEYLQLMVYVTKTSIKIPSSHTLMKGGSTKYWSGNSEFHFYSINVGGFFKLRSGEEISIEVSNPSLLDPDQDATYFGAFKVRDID
Protocol: To this mixture, the RANK acceptor beads and the streptavidin donor beads were added and further incubated for 1 hour at room temperature. Fluorescence was measured by reading plates on the EnVision Multilabel Plate Reader (Perkin Elmer) using an excitation wavelength of 680 nm and an emission wavelength of 520 nm.

human RANK-L [2] = biological target: T1, human RANK-L; assay: cell-based or functional assay
human RANK-L [3] = biological target: T1, human RANK-L; assay: ELISA (ED50), biotin-hRANK-L on neutravidin
In short: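 Nanobodies at 500 nM to 160 pM in 1% casein/PBS incubated 1 h at room temperature; binding detected via anti-myc then anti-mouse-HRP with TMB, OD 450 nm.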

human RANK-L [4] = biological target: T1, human RANK-L; assay: AlphaScreen, biotin-hRANK-L / RANK-huFc beads; remark: listed apart in the source
mouse RANK-L = biological target: T2, mouse RANK-L (mouse, UniProt O35235 158-316, limits assumed); assay: ELISA (ED50) on murine RANK-L, set-up as for human RANK-L
T2 construct: also called murine RANK-L
T2 sequence (looked up): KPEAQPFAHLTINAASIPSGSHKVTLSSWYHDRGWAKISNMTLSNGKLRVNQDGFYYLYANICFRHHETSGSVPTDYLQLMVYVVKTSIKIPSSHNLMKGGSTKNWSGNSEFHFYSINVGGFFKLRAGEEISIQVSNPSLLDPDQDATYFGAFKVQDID
Protocol: Therefore 2 μg/ml neutravidin was coated overnight at 4° C. The plates were washed 5 times with 300 μl PBS and then blocked with […] 1% casein/PBS for 2 hours at room temperature. […] After extensive washing with PBS, varying concentrations of Nanobodies starting from 500 nM to 160 pM diluted in 1% casein/PBS were added to the wells and the plates were incubated for 1 hour at room temperature. Bound Nanobodies were detected by subsequent incubations of a primary mouse anti-myc antibody and a secondary anti mouse-HRP conjugate (DAKO, Glostrup, Denmark) and using TMB-H2O2 (Pierce, Rockford, Ill., USA) substrate cocktail. The reaction was stopped with H₂SO₄ and the OD was read at 450 nm.

B1: RANKL3 (VHH, not shown: small tags and cut ends)
VHH: EVQLVESGGKLVQAGGSLRLSCAVSGRTSSIYNMAWFRQGPGKGRESVGRIYWSDDNTYYADSVKGRFTISRDNATNTVYLQMNSLKPEDTAVYYCAGKTTKWSLEYDYWGQGTQVTVSS
IC50 (human RANK-L [1]): 0.497 nM | RANK-L induced NF-kappaB activation (luciferase reporter, HEK293T cells), IC50 (human RANK-L [2]): 8.32 nM | EC50 (human RANK-L [3]): 0.568 nM | IC50 (human RANK-L [4]): 0.474 nM | EC50 (mouse RANK-L): ~0.6 nM
